Patent US8748176B2, “Generation of choroid plexus epithelial cells from human embryonic stem cells” (The Regents of the University of California, priority 2011, dated 2014)

B1: BMP4: Bone Morphogenetic Protein 4 (GeneID: 652), recombinant, commercially available (R&D Systems) (protein, UniProt P12644 293-408, looked up)
Bone morphogenetic protein 4: SPKHHSQRARKKNKNCRRHSLYVDFSDVGWNDWIVAPPGYQAFYCHGDCPFPLADHLNSTNHAIVQTLVNSVNSSIPKACCVPTELSAISMLYLDEYDKVVLKNYQEMVVEGCGCR

Tests used:
SFEBq-derived vesicles = experiment: CPEC vesicle secretion assay with secretion inhibitors, mESC-derived vesicles; assay type: cell-based, mouse; conditions: 100 uM acetazolamide and 5 mM ouabain together, 24 hrs; recovered after removal
From the text: (§1) To assess functional activity, we adopted a well-established in vitro assay for CPEC vesicle formation and secretion (33, 34). As described previously using this assay, primary dissociated CPECs on Matrigel self-assembled into hollow vesicles that grew in diameter, collapsed after treatment with the secretion inhibitors acetazolamide and ouabain, and regrew upon inhibitor withdrawal (FIG. 5A-G). Indistinguishable vesicles formed from dissociated SFEBq aggregates treated with BMP4 (n=6/6 independent cultures), but not from controls (n=0/6; FIGS. 5H,I). Like the primary CPEC vesicles, the SFEBq-derived vesicles were Aqp1 positive (FIG. 5I, inset), grew (FIGS. 5J,K), collapsed after exposure to the secretion inhibitors (FIG. 5L), and recovered after inhibitor removal (FIG. 5M).
(§2) Primary CP cells or SFEBq-derived cells were cultured on Matrigel as previously described (33, 34). Briefly, Matrigel (BD Biosciences, San Jose, Calif.) was mixed 1:1 with DMEM (Invitrogen) and incubated for at least 30 min at 37 C. BMP4-treated SFEBq aggregates at 12 DIV were dissociated with TrypLE Express (Invitrogen) and plated at 500,000 to 600,000 cells/well onto Matrigel-coated 6-well plates in DMEM with 10% FBS, 2 mM L-glutamine, NEAA, and sodium pyruvate (Invitrogen). […]

primary CPEC vesicles = experiment: CPEC vesicle secretion assay with secretion inhibitors, primary CPECs; assay type: cell-based, mouse; conditions: 100 uM acetazolamide and 5 mM ouabain together, 24 hrs; regrew upon withdrawal
From the text: as §1, §2

mESC-derived NECs = experiment: BMP4 treatment of mESC-derived SFEBq aggregates, CPEC/NEC marker RT-qPCR; assay type: cell-based, mouse
Method: Significant and similar levels of CPEC gene induction were also seen with one-time BMP4 addition alone (data not shown). These findings indicate a relatively short and early critical period in culture for BMP4-mediated CPEC marker induction, which occurs at the expense of NEC markers.
(§3) These were performed as described (21, 26) on a StepOne Plus (Applied Biosystems, Carlsbad, Calif.) using 18S normalization and Excel for graphing and statistics (two-tailed t-tests assuming equal variance). All primers and amplicons were validated as described (21, 26). All studies represent n>2 biological replicates per condition, unless otherwise specified.
Neural differentiation was adapted from Eiraku et al. (29). Briefly, mESCs were passaged for two hours onto gelatin-coated plates to reduce MEF load, dissociated to single cells using trypsin, then plated at varying concentrations onto ultra-low attachment U-bottom 96-well plates (Corning #7007, Lowell, Mass.) to form SFEBq aggregates. Differentiation media (29) was replaced initially, then every other day, with fresh media containing 0.5 to 50 ng/ml BMP4 (R&D Systems). Neural rosette (NR) cultures were based on the Elkabetz et al. method (30). […] For the combined SFEBq/NR method, we first generated SFEBq aggregates for 5 DIV, then transferred aggregates into adherent mNR conditions for another 2 DIV (7 DIV total).

H9 hESC SFEBq aggregates = experiment: BMP4 applied to H9 hESC SFEBq aggregates, CPEC marker expression; assay type: cell-based, human; conditions: BMP4 0-15 ng/ml, 18 to 24-DIV aggregates
Method: We also generated human CPECs by applying the SFEBq neural induction method to human ESCs (H9 line). H9 hESCs were optimized for aggregate size and assessed for NEC gene expression over time. 9000-cell SFEBq aggregates were optimal, and NEC expression plateaued by 18-24 DIV. BMP4 (0-15 ng/ml) was applied to 12-, 15-, 18-, 21-, and 24-DIV aggregates. […] Based on RT-qPCR studies, peak expression of NEC markers, but not radial glial markers, coincided with the 21 DIV aggregates.
(§4) 1) Neural rosette (NR) method. Neural induction with NR formation was adapted from Zhang et al. (35). Human ESC colonies were partially dissociated with 1 mg/ml dispase, then plated in suspension to form embryoid bodies (EBs) for 3 DIV. EBs were then transferred to suspension culture with neural induction media—DMEM/F12 (Invitrogen), N2 (Invitrogen), NEAA, heparin (2 ug/ml) and FGF2 (20 ng/ml)—for another two days. On 6 DIV, EBs were transferred to adherent PDL/laminin-coated plates with neural induction media, which was fully replaced every other day. On 16 DIV, media was fully replaced with neural induction media containing BMP4 (0.5-15 ng/ml), with full media replacement every other day. 2) Aggregate (SFEBq) method. […] The SFEBq media was changed every 3 days, with or without fresh BMP4, and the culture was analyzed after 1-2 weeks of BMP4 incubation, with greater CPEC differentiation detected at 2 weeks.

[1] = tested on: dissociated SFEBq aggregates; experiment: in vitro assay for CPEC vesicle formation on Matrigel; assay type: cell-based, mouse; conditions: SFEBq aggregates treated with 50 ng/ml BMP4; controls n=0/6
From the text: as §1, §2

H1-derived NRs = experiment: BMP4 addition to hESC-derived neural rosettes (NR method); assay type: cell-based, human; conditions: BMP4 0.5-15 ng/ml, evident by 7 DIV after addition
From the text: We then attempted to derive iCPECs from human ESCs using an analogous approach. To first generate NECs, we used the Zhang et al. method (35) to generate neural rosettes (NRs) (FIGS. 6A,B) with predominant forebrain character (30). […] Eventually, the hESC-derived vesicles transformed into flat epithelial sheets (FIG. 6D), and occasional multivesicular bodies also formed (FIG. 6E). […] H9 cultures yielded similar morphologic changes, although NR-to-vesicle transformations were less prominent.
as §4, with “day.” for “day. 2) Aggregate (SFEBq) method.”

[2] = tested on: mESC-derived NECs plated as adherent monolayers; experiment: combined aggregation-monolayer system, CPEC markers by RT-qPCR and immunocytochemistry; assay type: cell-based, mouse
Method: In addition to direct BMP4 applications to SFEBq aggregates, we also dissociated SFEBq aggregates into single cells after 5DIV (i.e. after they had differentiated into NECs), plated them as adherent monolayers onto PDL-laminin-coated plates at 300,000-600,000 cells, then added BMP4 (0.5-50 ng/ml BMP4) for another 5 days (10DIV total). This combined aggregation-monolayer system allows all NECs to experience the same BMP4 concentration in culture. […] The optimal concentration of BMP4 is probably between 0.5 ng/ml-50 ng/ml BMP4 in this system.
as §3

Molecule	vesicle response to secretion inhibitors (SFEBq-derived vesicles)	vesicle response to secretion inhibitors (primary CPEC vesicles)	CPEC markers Ttr, Lmx1a, and Msx1 induction (mESC-derived NECs; 5-day aggregates, BMP4 5 or 50 ng/ml for 7 DIV)	CPEC markers Aqp1 and Cldn1 induction (mESC-derived NECs; 5-day aggregates, BMP4 concentration-dependent)	NEC markers Sox1 and Foxg1 expression (mESC-derived NECs; with increasing BMP4 concentration)	CPEC markers Ttr, Otx2, and Lmx1a expression (H9 hESC SFEBq aggregates)	independent cultures forming vesicles on Matrigel [1]	morphologic transformation of neural rosettes (H1-derived NRs)	CPEC markers by RT-qPCR at 50 ng/ml ([2]; 50 ng/ml BMP4)	optimal BMP4 concentration for CPEC marker upregulation ([2]; 0.5-50 ng/ml BMP4 for 5 days, 10DIV total) [ng/mL]
CC(=O)Nc1nnc(S(N)(=O)=O)s1 [acetazolamide]	collapsed	collapsed								
C[C@@H]1O[C@@H](O[C@H]2C[C@@H](O)[C@]3(CO)[C@H]4[C@H](O)C[C@]5(C)[C@@H](C6=CC(=O)OC6)CC[C@]5(O)[C@@H]4CC[C@]3(O)C2)[C@H](O)[C@H](O)[C@H]1O [ouabain]	collapsed	collapsed								
B1			markedly induced	strongly induced	downregulated	upregulated	6/6	transformed directly into expanding vesicular structures	down-regulation of CPEC markers	5
